The results in this text go back to paper PMC2978343.

Assay [1] deals with Ecl18kI R174A mutant (UniProt O87963).
For assay [2] the target is unchanged. Kind of assay: atomic force microscopy.
The target of assay [3] is Ecl18kI restriction endonuclease, wild type (UniProt O87963). The assay is described as follows: tethered particle motion.

Turning to “Ecl18kI R174A mutant (from UniProt O87963 1-305) (enzyme)”, the phage lambda DNA cleavage activity, % of wt with Ecl18kI R174A mutant [1] was 0.2%. This substance registered a stoichiometry N with Ecl18kI R174A mutant [2] of 2.

Consider “Ecl18kI restriction endonuclease, wild type (from UniProt O87963 1-305) (enzyme)”, for which, in assay [3], the k unloop (loop breakage rate constant, tetramer to two DNA-bound dimers) was 0.86 s⁻¹.
